Test results reported in patent US20160046711A1 (Novartis, published 2016).

T1: cynomolgus CDH6 expressed on CHO cells (cynomolgus, UniProt A0A2K5TW62 54-790)
T1 sequence: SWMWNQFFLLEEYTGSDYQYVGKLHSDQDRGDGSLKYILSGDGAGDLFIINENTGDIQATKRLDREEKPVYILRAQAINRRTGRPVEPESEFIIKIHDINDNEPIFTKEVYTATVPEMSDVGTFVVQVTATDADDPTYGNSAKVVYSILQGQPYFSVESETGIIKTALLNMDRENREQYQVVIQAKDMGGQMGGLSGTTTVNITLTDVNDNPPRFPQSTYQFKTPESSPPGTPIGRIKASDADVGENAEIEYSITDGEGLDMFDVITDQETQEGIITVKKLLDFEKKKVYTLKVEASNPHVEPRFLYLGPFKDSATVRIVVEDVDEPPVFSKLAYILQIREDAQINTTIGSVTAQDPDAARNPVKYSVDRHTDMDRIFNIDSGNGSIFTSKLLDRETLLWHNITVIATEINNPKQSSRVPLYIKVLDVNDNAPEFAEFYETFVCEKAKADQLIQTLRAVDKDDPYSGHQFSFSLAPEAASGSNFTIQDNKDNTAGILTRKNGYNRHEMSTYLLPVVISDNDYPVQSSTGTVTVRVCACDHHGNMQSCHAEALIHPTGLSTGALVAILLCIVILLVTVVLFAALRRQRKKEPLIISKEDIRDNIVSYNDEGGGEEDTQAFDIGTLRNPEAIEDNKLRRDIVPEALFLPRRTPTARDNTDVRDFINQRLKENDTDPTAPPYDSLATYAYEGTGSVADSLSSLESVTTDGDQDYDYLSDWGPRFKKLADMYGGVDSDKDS

T2: human CDH6 expressed on cells (human, UniProt P55285 54-790)
T2 sequence: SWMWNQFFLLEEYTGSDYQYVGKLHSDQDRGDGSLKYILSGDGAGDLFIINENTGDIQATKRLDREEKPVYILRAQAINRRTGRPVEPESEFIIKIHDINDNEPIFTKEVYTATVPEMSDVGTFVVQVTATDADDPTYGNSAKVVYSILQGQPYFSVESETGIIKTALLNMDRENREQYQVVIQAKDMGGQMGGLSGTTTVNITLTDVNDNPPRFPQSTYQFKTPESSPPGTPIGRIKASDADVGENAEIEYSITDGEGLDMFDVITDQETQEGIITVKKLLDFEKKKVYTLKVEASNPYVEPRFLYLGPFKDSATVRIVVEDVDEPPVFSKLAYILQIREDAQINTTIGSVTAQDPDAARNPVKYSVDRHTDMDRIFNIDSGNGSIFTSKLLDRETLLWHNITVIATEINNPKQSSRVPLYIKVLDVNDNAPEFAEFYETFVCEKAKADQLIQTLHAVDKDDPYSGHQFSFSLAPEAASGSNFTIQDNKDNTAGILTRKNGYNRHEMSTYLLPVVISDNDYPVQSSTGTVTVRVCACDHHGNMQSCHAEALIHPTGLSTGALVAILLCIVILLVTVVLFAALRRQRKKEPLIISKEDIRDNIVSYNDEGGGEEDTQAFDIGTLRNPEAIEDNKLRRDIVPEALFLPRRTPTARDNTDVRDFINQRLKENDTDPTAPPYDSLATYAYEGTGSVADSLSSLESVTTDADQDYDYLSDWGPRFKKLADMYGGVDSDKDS

T3: rat CDH6 expressed on CHO cells (rat, UniProt P55280 54-789)
T3 sequence (looked up): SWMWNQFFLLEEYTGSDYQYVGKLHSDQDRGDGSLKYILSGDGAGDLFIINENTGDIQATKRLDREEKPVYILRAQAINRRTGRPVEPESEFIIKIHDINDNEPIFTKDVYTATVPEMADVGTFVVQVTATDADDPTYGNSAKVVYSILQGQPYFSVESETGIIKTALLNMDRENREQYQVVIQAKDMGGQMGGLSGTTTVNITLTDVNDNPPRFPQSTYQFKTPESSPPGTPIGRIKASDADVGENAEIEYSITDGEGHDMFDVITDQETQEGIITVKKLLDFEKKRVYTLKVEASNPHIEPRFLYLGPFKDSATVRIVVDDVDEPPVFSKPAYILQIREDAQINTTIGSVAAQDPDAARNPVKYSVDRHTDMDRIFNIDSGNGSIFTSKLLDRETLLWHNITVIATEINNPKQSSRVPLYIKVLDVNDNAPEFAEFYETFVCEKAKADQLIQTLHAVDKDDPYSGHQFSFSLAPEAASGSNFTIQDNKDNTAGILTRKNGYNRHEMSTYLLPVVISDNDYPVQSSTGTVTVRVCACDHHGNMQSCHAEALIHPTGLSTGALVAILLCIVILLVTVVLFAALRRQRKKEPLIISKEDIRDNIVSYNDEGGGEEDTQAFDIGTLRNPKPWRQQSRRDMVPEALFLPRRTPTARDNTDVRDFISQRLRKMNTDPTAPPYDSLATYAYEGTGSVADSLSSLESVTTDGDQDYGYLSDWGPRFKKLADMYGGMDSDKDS

T4: mouse CDH6 expressed on CHO cells (mouse, UniProt P97326 54-790)
T4 sequence (looked up): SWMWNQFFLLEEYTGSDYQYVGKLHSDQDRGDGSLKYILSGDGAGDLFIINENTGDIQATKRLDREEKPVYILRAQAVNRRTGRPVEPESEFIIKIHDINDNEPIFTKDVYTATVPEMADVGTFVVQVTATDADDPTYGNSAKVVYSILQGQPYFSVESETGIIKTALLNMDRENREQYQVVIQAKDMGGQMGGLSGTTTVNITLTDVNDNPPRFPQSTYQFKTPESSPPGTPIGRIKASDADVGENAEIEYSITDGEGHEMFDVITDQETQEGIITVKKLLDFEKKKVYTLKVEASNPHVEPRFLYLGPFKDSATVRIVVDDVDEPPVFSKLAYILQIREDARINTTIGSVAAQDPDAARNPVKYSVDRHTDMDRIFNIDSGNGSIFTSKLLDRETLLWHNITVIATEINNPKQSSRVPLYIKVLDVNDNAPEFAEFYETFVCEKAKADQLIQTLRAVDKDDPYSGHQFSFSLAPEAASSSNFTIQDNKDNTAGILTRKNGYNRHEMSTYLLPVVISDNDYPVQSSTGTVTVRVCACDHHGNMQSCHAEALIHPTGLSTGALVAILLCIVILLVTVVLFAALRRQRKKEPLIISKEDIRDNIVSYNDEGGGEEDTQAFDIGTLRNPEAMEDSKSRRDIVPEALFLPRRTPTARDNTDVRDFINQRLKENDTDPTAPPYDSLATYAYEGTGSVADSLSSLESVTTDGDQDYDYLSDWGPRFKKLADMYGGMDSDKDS


Legend:
[1] = target: T1, cynomolgus CDH6 expressed on CHO cells; assay: FACS titration
[2] = target: T2, human CDH6 expressed on cells; assay: FACS titration
[3] = target: T2, human CDH6 expressed on cells; assay: FACS titration; remark: listed apart in the source
[4] = target: T3, rat CDH6 expressed on CHO cells; assay: FACS titration
[5] = target: T4, mouse CDH6 expressed on CHO cells; assay: FACS titration
[6] = target: T3, rat CDH6 expressed on CHO cells; assay: FACS titration on CHO-ratCDH6
[7] = target: T1, cynomolgus CDH6 expressed on CHO cells; assay: FACS titration on CHO-cyCDH6
[8] = target: T2, human CDH6 expressed on cells; assay: FACS titration on CHO-TO-huCDH6
[9] = target: T4, mouse CDH6 expressed on CHO cells; assay: FACS titration on CHO-moCDH6

Row | EC50 [1] [nM] | EC50 [2] [nM] | EC50 [3] [nM] | EC50 [4] [nM] | EC50 [5] [nM] | EC50 [6] [nM] | EC50 [7] [nM] | EC50 [8] [nM] | EC50 [9] [nM] | Binder
1 | 1.07 | 0.386 | 0.946 | 0.814 | 1.26 |  |  |  |  | NOV0712 (antibody, human IgG1, kappa, V domains shown) VH: QVQLLESGGGLVQPGGSLRLSCAASGFTFSSHGMHWVRQAPGKGLEWVSVISGSGSNTGYADSVKGRFTISRDNSKNTLYLQMNSLRAEDTAVYYCARQWGSYAFDSWGQGTLVTVSS VL: DIQMTQSPSSLSASVGDRVTITCRASQSISSYLNWYQQKPGKAPKLLIYAVSTLQSGVPSRFSGSGSGTDFTLTISSLQPEDFATYYCQQSGTFPPTTFGQGTKVEIKR
2 |  | 0.364 |  |  |  | 0.637 | 0.606 | 0.651 | 0.94 | NOV0712-sulfo-SPDB-DM4 (antibody, human IgG1, kappa, V domains shown, sulfo-SPDB-DM4 linker/payload on antibody amines, positions not given) VH: QVQLLESGGGLVQPGGSLRLSCAASGFTFSSHGMHWVRQAPGKGLEWVSVISGSGSNTGYADSVKGRFTISRDNSKNTLYLQMNSLRAEDTAVYYCARQWGSYAFDSWGQGTLVTVSS VL: DIQMTQSPSSLSASVGDRVTITCRASQSISSYLNWYQQKPGKAPKLLIYAVSTLQSGVPSRFSGSGSGTDFTLTISSLQPEDFATYYCQQSGTFPPTTFGQGTKVEIKR
